# T1: LPL on LPL-expressing cells (Example 1)
# T1 sequence (P06858 28-475, species assumed, looked up): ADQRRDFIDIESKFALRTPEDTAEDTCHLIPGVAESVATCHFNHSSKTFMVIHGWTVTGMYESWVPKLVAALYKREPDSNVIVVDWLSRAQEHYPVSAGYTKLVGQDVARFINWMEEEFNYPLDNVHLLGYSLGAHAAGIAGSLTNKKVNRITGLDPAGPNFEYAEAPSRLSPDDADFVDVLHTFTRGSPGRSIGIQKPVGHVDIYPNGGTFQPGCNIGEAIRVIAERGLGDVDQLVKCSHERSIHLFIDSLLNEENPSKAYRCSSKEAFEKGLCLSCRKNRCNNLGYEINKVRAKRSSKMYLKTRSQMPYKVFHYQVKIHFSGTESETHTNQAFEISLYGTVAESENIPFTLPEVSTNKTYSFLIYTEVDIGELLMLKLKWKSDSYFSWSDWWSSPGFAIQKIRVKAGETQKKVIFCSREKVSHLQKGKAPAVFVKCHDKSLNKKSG
# Target: T1, LPL on LPL-expressing cells (Example 1)
# Assay: cell-based or functional assay
row,Binder,EC50 in the LPL assay (inhibition of LPL) [nM]
1,human ANGPTL3 (ligand) SRIDQDNSSFDSLSPEPKSRFAMLDDVKILANGLLQLGHGLKDFVHKTKGQINDIFQKLNIFDQSFYDLSLQTSEIKEEEKELRRTTYKLQVKNEEVKNMSLELNSKLESLLEEKILLQQKVKYLEEQLTNLIQNQPETPEHPEVTSLKTFVEKQDNSIKDLLQTVEDQYKQLNQQHSQIKEIENQLRRTSIQEPTEISLSSKPRAPRTTPFLQLNEIRNVKHDGIPAECTTIYNRGEHTSGMYAIRPSNSQVFHVYCDVISGSPWTLIQHRIDGSQNFNETWENYKYGFGRLDGEFWLGLEKIYSIVKQSNYVLRIELEDWKDNKHYIEYSFYLGNHETNYTLHLVAITGNVPNAIPENKDLVFSTWDHKAKGHFNCPEGYSGGWWWHDECGENNLNGKYNKPRAKSKPERRRGLSWKSQNGRLYSIKSTKMLIHPTDSESFE,21.5
2,human ANGPTL3/8 complex (other) chain 1: SRIDQDNSSFDSLSPEPKSRFAMLDDVKILANGLLQLGHGLKDFVHKTKGQINDIFQKLNIFDQSFYDLSLQTSEIKEEEKELRRTTYKLQVKNEEVKNMSLELNSKLESLLEEKILLQQKVKYLEEQLTNLIQNQPETPEHPEVTSLKTFVEKQDNSIKDLLQTVEDQYKQLNQQHSQIKEIENQLRRTSIQEPTEISLSSKPRAPRTTPFLQLNEIRNVKHDGIPAECTTIYNRGEHTSGMYAIRPSNSQVFHVYCDVISGSPWTLIQHRIDGSQNFNETWENYKYGFGRLDGEFWLGLEKIYSIVKQSNYVLRIELEDWKDNKHYIEYSFYLGNHETNYTLHLVAITGNVPNAIPENKDLVFSTWDHKAKGHFNCPEGYSGGWWWHDECGENNLNGKYNKPRAKSKPERRRGLSWKSQNGRLYSIKSTKMLIHPTDSESFEAAADYKDDDDK chain 2: APMGGPELAQHEELTLLFHGTLQLGQALNGVYRTTEGRLTKARNSLGLYGRTIELLGQEVSRGRDAAQELRASLLETQMEEDILQLQAEATAEVLGEVAQAQKVLRDSVQRLEVQLRSAWLGPAYREFEVLKAHADKQSHILWALTGHVQRQRREMVAQQHRLRQIQERLHTAALPA,0.54
